What all share (test): SEC-MALS
In general terms: SEC sorts molecules by how far they enter the pores of the column.

Assay [1] deals with hsSMNΔ5(T274I)•Gemin2, Q16637;O14893. The settings on record: chain shown with the change; 20°C; peak concentration 0.5 µM; parent: 231 (188-454).
Assay [2] addresses hsSMNΔ5(H273R)•Gemin2, Q16637;O14893. The settings on record: chain shown with the change; 20°C; peak concentration 0.5 µM; parent: 231 (188-454).
Assay [3] concerns the target hsSMNΔ5(G279V)•Gemin2, Q16637;O14893. The settings on record: chain shown with the change; 20°C; peak concentration 0.3 µM; parent: 231 (188-454).

Where a chain is given by its changes, count along the chain named. Names and notes keep the numbering of the source.

B1: hsSMNΔ5•Gemin2 complex, O14893 T274I (protein)
chain 1: MAMSSGGSGGGVPEQEDSVLFRRGTGQSDDSDIWDDTALIKAYDKAVASFKHALKNGDICETSGKPKTTPKRKPAKKNKSQKKNTAASLQQWKVGDKCSAIWSEDGCIYPATIASIDFKRETCVVVYTGYGNREEQNLSDLLSPICEVANNIEQNAQENENESQVSTDESENSRSPGNKSDNIKPKSAPWNSFLPPPPPMPGPRLGPGKIIPPPPPICPDSLDDADALGSMLISWYMSGYHIGYYMGFRQNQKEGRCSHSLN
chain 2: MAWVPAESAVEELMPRLLPVEPCDLTEGFDPSVPPRTPQEYLRRVQIEAAQCPDVVVAQIDPKKLKRKQSVNISLSGCQPAPEGYSPTLQWQQQQVAQFSTVRQNVNKHRSHWKSQQLDSNVTMPKSEDEEGWKKFCLGEKLCADGAVGPATNESPGIDYVQIGFPPLLSIVSRMNQATVTSVLEYLSNWFGERDFTPELGRWLYALLACLEKPLLPEAHSLIRQLARRCSEVRLLVDSKDDERVPALNLLICLVSRYFDQRDLADEPS
Turning to B1, the other: SEC-MALS Mw in assay [1] is 198.

B2: hsSMNΔ5•Gemin2 complex, O14893 H273R (protein)
chain 1: B1 chain 1 with H241R, I242T
chain 2: B1 chain 2
Regarding B2, the other: SEC-MALS Mw in assay [2] was determined as 266.

B3: hsSMNΔ5•Gemin2 complex, O14893 G279V (protein)
chain 1: B1 chain 1 with I242T, G247V
chain 2: B1 chain 2
Regarding B3, the other: SEC-MALS Mw in assay [3] came out at 384.

Values taken from publication PMC8287954.
